As a reminder, the Kd is the equilibrium constant for the complex coming apart. Low readings indicate tighter binding, high ones weaker binding.

In assay [1] the target is FPA144-F (the fucosylated version of bemarituzumab) (human). Kind of assay: SPR. In general terms: In SPR one partner is held on a chip, and binding of the other changes the refractive index at the surface.
Another assay addresses Bemarituzumab (human). Kind of assay: SPR.

human Fc gamma receptor IIIa (V158): the results for the equilibrium dissociation constant (Kd) (in assay [1]; with Bemarituzumab (human)) were 0.207 µM and 0.0092 µM, respectively.

For the origin of these results see paper PMC8565817.
